B1: Seipin (Saccharomyces cerevisiae), Q06058 (parent)
chain: MKINVSRPLQFLQWSSYIVVAFLIQLLIILPLSILIYHDFYLRLLPADSSNVVPLNTFNILNGVQFGTKFFQSIKSIPVGTDLPQTIDNGLSQLIPMRDNMEYKLDLNLQLYCQSKTDHLNLDNLLIDVYRGPGPLLGAPGGSNSKDEKIFHTSRPIVCLALTDSMSPQEIEQLGPSRLDVYDEEWLNTIRIEDKISLESSYETISVFLKTEIAQRNLIIHPESGIKFRMNFEQGLRNLMLRKRFLSYIIGISIFHCIICVLFFITGCTAFIFVRKGQEKSKKHS
partner: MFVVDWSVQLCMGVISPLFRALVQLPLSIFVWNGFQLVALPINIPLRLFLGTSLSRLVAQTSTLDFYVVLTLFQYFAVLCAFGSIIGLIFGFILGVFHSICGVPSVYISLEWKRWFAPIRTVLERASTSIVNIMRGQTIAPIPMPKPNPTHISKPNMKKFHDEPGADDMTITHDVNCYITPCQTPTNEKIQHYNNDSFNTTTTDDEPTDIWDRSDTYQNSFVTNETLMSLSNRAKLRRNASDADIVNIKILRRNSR

The variants in the test derive from B1. As to conditions: with ldb16_yeast LDB16, P25587.
In the case of MKINVSRPLQFLQWSSYIVVAFLIQLLIILPLSILIYHDFYLRLLPADSSNVVPLNTFNILNGVQFGTKFFQSIKSIPVGTDLPQTIDNGLSQLIPMRDNMEYKLDLNLQLYCQSKTDHLNLDNLLIDVYRGPGPLLGAPGGSNSKDEKIFHTSRPIVCLALTDSMSPQEIEQLGPSRLDVYDEEWLNTIRIEDKISLESSYETISVFLKTEIAQRNLIIHPESPIKFRMNFEQGLRNLMLRKRFLSYIIGISIFHCIICVLFFITGCTAFIFVRKGQEKSKKHS [G225P], the “effect of a mutation on the interaction” value is on record as “decreasing interaction strength”.

Values taken from IntAct's records for PubMed 24434579.
